Experimental findings from paper PMC3077247 (EMBO Reports, 2011) are described below.

The target of experiment [1] is T1, GST-fusion of the HECT domain of Nedd4, wild type (UniProt P46934-4).
T1 sequence: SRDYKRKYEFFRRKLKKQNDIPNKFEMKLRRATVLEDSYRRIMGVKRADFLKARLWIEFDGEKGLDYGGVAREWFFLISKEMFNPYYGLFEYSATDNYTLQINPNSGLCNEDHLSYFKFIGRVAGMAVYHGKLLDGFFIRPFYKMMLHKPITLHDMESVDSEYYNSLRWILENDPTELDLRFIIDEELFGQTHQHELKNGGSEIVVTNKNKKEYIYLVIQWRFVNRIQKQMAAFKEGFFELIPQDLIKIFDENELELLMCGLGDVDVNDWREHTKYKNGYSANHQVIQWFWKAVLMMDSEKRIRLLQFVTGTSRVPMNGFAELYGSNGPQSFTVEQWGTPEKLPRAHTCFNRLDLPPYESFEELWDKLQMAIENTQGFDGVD
Kind of experiment: pull-down.

For experiment [2], the target named is T2, HECT domain of Nedd4, F707A (as used for fluorescence polarisation and SPR) (UniProt P46934-4, F707A).
T2 sequence: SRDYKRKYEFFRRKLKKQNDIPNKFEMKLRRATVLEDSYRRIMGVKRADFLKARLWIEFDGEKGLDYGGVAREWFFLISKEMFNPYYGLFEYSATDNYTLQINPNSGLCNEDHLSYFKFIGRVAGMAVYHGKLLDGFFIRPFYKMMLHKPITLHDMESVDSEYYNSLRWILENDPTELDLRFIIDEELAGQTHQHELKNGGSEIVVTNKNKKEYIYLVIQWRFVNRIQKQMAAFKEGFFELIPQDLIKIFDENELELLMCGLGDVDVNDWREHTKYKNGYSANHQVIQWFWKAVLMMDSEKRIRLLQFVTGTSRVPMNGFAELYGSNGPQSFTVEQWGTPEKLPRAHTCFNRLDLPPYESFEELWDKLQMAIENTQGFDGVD
Kind of experiment: SPR.

For experiment [3], the target named is T3, HECT domain of Nedd4, Y605A (as used for SPR) (UniProt P46934-4, Y605A).
T3 sequence: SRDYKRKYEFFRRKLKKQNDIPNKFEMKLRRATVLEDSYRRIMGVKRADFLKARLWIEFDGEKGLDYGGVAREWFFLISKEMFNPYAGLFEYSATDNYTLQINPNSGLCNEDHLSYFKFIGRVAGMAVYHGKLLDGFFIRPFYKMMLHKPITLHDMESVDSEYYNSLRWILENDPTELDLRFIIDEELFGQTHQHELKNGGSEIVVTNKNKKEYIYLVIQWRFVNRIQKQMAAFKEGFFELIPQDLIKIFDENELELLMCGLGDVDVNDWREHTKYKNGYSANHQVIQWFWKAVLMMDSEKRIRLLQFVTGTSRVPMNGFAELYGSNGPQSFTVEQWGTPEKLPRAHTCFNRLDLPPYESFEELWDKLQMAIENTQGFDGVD
Description: SPR.

In a further experiment the target is ubiquitin (monomeric) (UniProt P0CG48 1-76). Kind of experiment: fluorescence polarisation.

B1: E2 enzyme Ube2D3 (apo form) (enzyme)
chain: not shown
With B1, the binding result in experiment [1], in experiment [2] and in experiment [3] was “binds” each time.

B2: HECT domain of Nedd4, wild type (as used for crystals, fluorescence polarisation, SPR and supplementary Fig S1) (domain or fragment)
chain: SRDYKRKYEFFRRKLKKQNDIPNKFEMKLRRATVLEDSYRRIMGVKRADFLKARLWIEFDGEKGLDYGGVAREWFFLISKEMFNPYYGLFEYSATDNYTLQINPNSGLCNEDHLSYFKFIGRVAGMAVYHGKLLDGFFIRPFYKMMLHKPITLHDMESVDSEYYNSLRWILENDPTELDLRFIIDEELFGQTHQHELKNGGSEIVVTNKNKKEYIYLVIQWRFVNRIQKQMAAFKEGFFELIPQDLIKIFDENELELLMCGLGDVDVNDWREHTKYKNGYSANHQVIQWFWKAVLMMDSEKRIRLLQFVTGTSRVPMNGFAELYGSNGPQSFTVEQWGTPEKLPRAHTCFNRLDLPPYESFEELWDKLQMAIENTQGFDGVD
B2 gave an equilibrium dissociation constant (Kd) with ubiquitin (monomeric) of 11 µM.
